Data on one substance can be found in paper PMC2172889.

In assay [1] the target is epidermal growth factor receptor (human (endogenous in MDA-MB-231)) (UniProt P00533). The assay is described as follows: radioligand binding.
For assay [2] the target is unchanged. Put plainly: flow cytometry on cells. In general terms: A flow cytometer gives signals particle by particle.

“recombinant domain III (DIII) of the laminin-5 γ2-chain (domain or fragment)” gave an IC50 2 (two-site competition, site 2) in assay [1] of 1180 nM. The same substance gave a fluorescence, fold over control, at saturation in assay [2] of 12 fold.
